Laboratory results reported in patent US20050260730A1 (published 2005).
Non-standard residues stand in square brackets, D forms with d. Phe(4-F) = N[C@@H](Cc1ccc(F)cc1)C(=O)O

Target: CDK2/cyclin A complex (human, UniProt P24941 1-298; P20248 173-432)
Test: cell-based or functional assay

CDK2/cyclin A kinase activity IC50 [µM]	Binder
> 50	Ac-RRLNF-NH2 [Ac-Arg-Arg-Leu-Asn-Phe-NH2]
50	H-RRL[Phe(4-F)]-NH2 (SMILES CC(C)C[C@H](NC(=O)[C@H](CCCNC(=N)N)NC(=O)[C@@H](N)CCCNC(=N)N)C(=O)N[C@@H](Cc1ccc(F)cc1)C(N)=O) [H-Arg-Arg-Leu-(p-F-Phe)-NH2]
